B1: DARPin #29 (designed binder)
chain: MRGSHHHHHHGSDLDKKLLEAARAGQDDEVRILMANGADVNAKDERGTTPLHLAAVYGHLEIVEVLLKAGADVNAKNETGYTPLHLADSSGHLEIVEVLLKHGADVNAQDKSGKTPADLAADAGHEDIAEVLQKLN
B2: DARPin #28 (designed binder)
chain: B1 chain with G103S
B3: DARPin #30 (designed binder)
chain: B1 chain with H102A, G103S
B4: DARPin #27 (designed binder)
chain: B1 chain with H102A
B5: DARPin #20 (designed binder)
chain: MRGSHHHHHHGSDLDKKLLEAARAGQDDEVRILMANGADVNAKDYFSHTPLHLAARNGHLKIVEVLLKAGADVNAKDFAGKTPLHLAANDGHLEIVEVLLKHGADVNAQDIFGKTPADIAADAGHEDIAEVLQKLN
B6: DARPin #21 (designed binder)
chain: B5 chain with K61E
B7: DARPin #19 (designed binder)
chain: B5 chain with D15G
B8: DARPin #22 (designed binder)
chain: B5 chain with D15G, K61E
B9: DARPin #43 (designed binder)
chain: B5 chain with D15G, M34L, A35K, N36A
B10: DARPin #48 (designed binder)
chain: B5 chain with I32E, M34L, A35K, N36A, H102A
B11: DARPin #44 (designed binder)
chain: B5 chain with D15G, I32E, M34L, A35K, N36A
B12: DARPin #45 (designed binder)
chain: B5 chain with D15G, M34L, A35K, N36A, H102A
B13: DARPin #46 (designed binder)
chain: B5 chain with D15G, I32E, M34L, A35K, N36A, H102A
B14: DARPin #47 (designed binder)
chain: B5 chain with M34L, A35K, N36A, H102A

Changes are numbered by the printed parent chain.

rat serum albumin, sequence (P02770 25-608 limits assumed): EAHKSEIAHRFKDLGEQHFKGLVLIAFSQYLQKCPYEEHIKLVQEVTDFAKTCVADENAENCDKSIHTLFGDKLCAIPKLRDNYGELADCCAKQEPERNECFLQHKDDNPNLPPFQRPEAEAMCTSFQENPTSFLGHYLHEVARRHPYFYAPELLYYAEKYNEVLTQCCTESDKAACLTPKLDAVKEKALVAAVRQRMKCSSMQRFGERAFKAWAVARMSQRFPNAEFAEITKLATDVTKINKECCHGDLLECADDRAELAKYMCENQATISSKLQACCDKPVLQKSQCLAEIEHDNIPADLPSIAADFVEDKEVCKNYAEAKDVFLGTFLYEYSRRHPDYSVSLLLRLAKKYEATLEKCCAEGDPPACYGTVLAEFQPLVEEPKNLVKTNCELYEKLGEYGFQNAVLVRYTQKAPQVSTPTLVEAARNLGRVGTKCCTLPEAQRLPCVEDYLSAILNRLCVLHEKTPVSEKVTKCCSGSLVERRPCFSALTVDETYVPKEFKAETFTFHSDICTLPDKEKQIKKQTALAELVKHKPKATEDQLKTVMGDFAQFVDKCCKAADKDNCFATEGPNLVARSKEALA
dog serum albumin, sequence (P49822 25-608 limits assumed): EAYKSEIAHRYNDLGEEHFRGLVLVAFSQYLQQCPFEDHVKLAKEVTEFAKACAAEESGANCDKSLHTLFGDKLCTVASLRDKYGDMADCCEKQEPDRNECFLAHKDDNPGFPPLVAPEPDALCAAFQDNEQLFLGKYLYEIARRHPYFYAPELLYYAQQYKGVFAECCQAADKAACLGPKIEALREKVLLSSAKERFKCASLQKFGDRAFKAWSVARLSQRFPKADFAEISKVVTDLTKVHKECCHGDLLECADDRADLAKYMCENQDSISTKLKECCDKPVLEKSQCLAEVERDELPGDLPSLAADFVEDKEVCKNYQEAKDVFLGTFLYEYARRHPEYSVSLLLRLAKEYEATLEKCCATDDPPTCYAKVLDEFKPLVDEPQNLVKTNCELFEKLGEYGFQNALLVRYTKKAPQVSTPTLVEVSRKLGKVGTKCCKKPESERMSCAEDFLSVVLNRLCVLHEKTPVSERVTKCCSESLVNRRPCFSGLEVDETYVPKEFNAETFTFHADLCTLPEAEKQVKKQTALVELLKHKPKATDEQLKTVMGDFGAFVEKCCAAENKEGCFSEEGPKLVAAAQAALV
T3 sequence (P02768 25-609 limits assumed): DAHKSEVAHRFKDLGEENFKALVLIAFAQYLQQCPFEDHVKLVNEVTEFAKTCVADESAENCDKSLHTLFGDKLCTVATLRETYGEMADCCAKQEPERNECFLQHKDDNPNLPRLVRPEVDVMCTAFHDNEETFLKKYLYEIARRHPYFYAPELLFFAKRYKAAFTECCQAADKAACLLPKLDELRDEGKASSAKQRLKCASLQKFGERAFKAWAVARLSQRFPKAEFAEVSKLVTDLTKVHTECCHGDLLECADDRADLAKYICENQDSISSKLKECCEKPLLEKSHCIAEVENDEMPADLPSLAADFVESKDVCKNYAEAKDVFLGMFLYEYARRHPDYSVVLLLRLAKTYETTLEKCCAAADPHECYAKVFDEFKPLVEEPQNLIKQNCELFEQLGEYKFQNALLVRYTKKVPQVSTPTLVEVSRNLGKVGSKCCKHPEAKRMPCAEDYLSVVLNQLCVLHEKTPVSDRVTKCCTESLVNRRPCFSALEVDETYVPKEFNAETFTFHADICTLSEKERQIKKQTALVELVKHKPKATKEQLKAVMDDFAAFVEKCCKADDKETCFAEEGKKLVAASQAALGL

In the first assay the target is T1, mouse serum albumin (mouse, UniProt P07724 25-608).
T1 construct: also called MSA
Description: SPR (ProteOn), DARPin captured by anti-RGS-His antibody, albumin injected. How it is done: (§1) DARPins with binding specificity for xSA were immobilized in a flow cell via their His-tag to coated α-RGS-His antibody (Qiagen, cat. no. 34650), and the interaction of human, cynomolgus monkey (cyno), mouse, rat, rabbit and dog serum albumin with the immobilized DARPins were analyzed.
(§2) SPR was measured using a ProteOn instrument (BioRad) and measurement was performed according standard procedures known to the person skilled in the art. The running buffer was PBS, pH 7.4, containing 0.01% Tween 20®. Anti-RGS-His antibody was covalently immobilized on a GLC chip (BioRad) to a level of about 2000 resonance units (RU). Immobilization of DARPins on the antibody coated chip was then performed by injecting 150 μl of 1 μM DARPin solution in 300 s (flow rate=30 μl/min). The interaction with serum albumin of the different species was then measured by injecting in 60 sec a volume of 100 μl running buffer (PBS containing 0.01% Tween®) containing a distinct serum albumin at a concentration of 400, 200, 100, 50 nM (on-rate measurement), followed by a running buffer flow for 10 to 30 minutes (flow rate=100 μl/min) (off-rate measurement). The signals (i.e. resonance unit (RU) values) of an uncoated reference cell and a reference injection (i.e. injection of running buffer only) were subtracted from the RU traces obtained after injection of the serum albumins (double-referencing). From the SRP traces obtained from the on-rate and off-rate measurements the on- and off-rate of the corresponding DARPin serum albumin interaction can be determined.
(§3) While human and cynomolgus monkey serum albumin are bound by all DARPins analyzed, rabbit, mouse, rat and dog serum albumin is only bound by a subset of these DARPins.
With B1, the binding result is “no binding (tested: up to 400 nM)”.

As to B2, the binding result is “no binding (tested: up to 400 nM)”.

Consider B3, for which the binding result is given as “no binding (tested: up to 400 nM)”.

For the molecule B4, the binding result is on record as “no binding (tested: up to 400 nM)”.

The term Kd denotes the equilibrium constant for the complex coming apart. In turn, B5 returned a Kd of 124 nM.

B6 returned a Kd of 142 nM.

Take B7: the Kd was 56 nM.

B8 gave a Kd of 68 nM.

The next assay addresses rat serum albumin (rat, UniProt P02770 25-608). Described as above. The procedure: as §1, §2, §3
Take B1: the binding result is “no binding (tested: up to 400 nM)”.

For the molecule B2, the binding result is “no binding (tested: up to 400 nM)”.

For B3, the binding result was “no binding (tested: up to 400 nM)”.

B4: the binding result is “no binding (tested: up to 400 nM)”.

B5 displayed a Kd of 242 nM.

B6 returned a Kd of 266 nM.

B7 returned a Kd of 91 nM.

The molecule B8 showed a Kd of 109 nM.

In another assay the target is T2, cynomolgus monkey serum albumin (cynomolgus monkey (macaca fascicularis), UniProt A2V9Z4 25-608).
T2 construct: also called CSA
T2 sequence (A2V9Z4 25-608 limits assumed): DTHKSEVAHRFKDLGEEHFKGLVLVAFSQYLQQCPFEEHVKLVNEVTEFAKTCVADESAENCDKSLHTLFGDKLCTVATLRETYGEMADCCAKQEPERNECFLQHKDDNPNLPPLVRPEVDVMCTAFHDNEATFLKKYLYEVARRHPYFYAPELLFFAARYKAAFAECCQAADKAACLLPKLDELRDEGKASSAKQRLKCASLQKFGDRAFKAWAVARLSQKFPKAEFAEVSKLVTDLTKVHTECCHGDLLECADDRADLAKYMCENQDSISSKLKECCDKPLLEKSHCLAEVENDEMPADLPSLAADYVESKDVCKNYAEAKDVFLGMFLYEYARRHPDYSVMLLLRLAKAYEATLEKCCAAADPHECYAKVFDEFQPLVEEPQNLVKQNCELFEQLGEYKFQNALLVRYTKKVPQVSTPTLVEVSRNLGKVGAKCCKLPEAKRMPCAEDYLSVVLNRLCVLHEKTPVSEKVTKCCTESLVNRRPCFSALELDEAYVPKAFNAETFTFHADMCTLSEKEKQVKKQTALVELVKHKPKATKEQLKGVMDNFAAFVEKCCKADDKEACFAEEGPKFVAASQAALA
Described as above. The procedure: as §1, §2, §3
Molecule B1 had a Kd of 7 nM.

B2 had a Kd of 3 nM.

On to B3, for which the Kd worked out at 4 nM.

Turning to B4, the affinity, expressed as Kd, was 6 nM.

The molecule B5 registered a Kd of 110 nM.

B6 showed a Kd of 110 nM.

Turning to B7, the Kd turned out to be 63 nM.

Take B8: the Kd was 74 nM.

The next assay addresses dog serum albumin (dog, UniProt P49822 25-608). Described as above. The procedure:
as §1, §2, §3
Consider B1, for which the binding result is recorded as “no binding (tested: up to 400 nM)”.

Take B2: the binding result is reported as “no binding (tested: up to 400 nM)”.

B3: the binding result is given as “no binding (tested: up to 400 nM)”.

As for B4, the binding result was “no binding (tested: up to 400 nM)”.

In turn, B5 showed a Kd of 185 nM.

With B6, binding was characterised by a dissociation constant (Kd) of 180 nM.

With B7, the affinity, expressed as Kd, was 77 nM.

B8: the Kd was 81 nM.

Another assay deals with rabbit serum albumin (rabbit, UniProt P49065 25-608). The description is as above. The procedure: as §1, §2, §3
rabbit serum albumin, sequence (P49065 25-608 limits assumed): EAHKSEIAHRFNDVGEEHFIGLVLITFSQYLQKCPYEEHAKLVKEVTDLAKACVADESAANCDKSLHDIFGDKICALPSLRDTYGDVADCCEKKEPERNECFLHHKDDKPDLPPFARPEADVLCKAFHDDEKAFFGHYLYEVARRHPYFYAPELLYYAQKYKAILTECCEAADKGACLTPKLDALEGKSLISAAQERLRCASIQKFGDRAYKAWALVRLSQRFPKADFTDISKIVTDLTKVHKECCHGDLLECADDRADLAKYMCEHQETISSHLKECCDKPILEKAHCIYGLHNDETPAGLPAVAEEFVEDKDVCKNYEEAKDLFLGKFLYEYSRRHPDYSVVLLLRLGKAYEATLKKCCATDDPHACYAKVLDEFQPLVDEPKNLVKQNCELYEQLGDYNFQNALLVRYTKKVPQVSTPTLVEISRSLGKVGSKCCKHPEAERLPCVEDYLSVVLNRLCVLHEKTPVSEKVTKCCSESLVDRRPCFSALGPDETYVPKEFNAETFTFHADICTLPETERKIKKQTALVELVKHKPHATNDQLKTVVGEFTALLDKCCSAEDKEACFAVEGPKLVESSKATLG
With B1, the Kd was 17 nM.

Take B2: the Kd was 9 nM.

For the molecule B3, the Kd turned out to be 8 nM.

With B4, binding was characterised by a dissociation constant (Kd) of 19 nM.

B5: the binding result was “no binding (tested: up to 400 nM)”.

In the case of B6, the binding result is recorded as “no binding (tested: up to 400 nM)”.

In the case of B7, the binding result is “no binding (tested: up to 400 nM)”.

Consider B8, for which the binding result is recorded as “no binding (tested: up to 400 nM)”.

A further assay has as its target T3, human serum albumin (human, UniProt P02768 25-609).
T3 construct: also called HSA
The description is as above. How it is done: as §1, §2, §3
B1 gave a dissociation constant Kd of 15 nM.

In turn, B2 showed a Kd of 6 nM.

As to B3, the dissociation constant (Kd) is 7 nM.

Molecule B4 registered a Kd of 11 nM.

As for B5, the Kd was determined as 27 nM.

On to B9, for which the dissociation constant (Kd) is 30 nM.

In the case of B6, the Kd worked out at 26 nM.

B7 had a Kd of 14 nM.

B8 had a Kd of 13 nM.

As to B10, binding was put at a Kd of 68 nM.

In the case of B11, the affinity, expressed as Kd, was 39 nM.

In turn, B12 displayed a Kd of 35 nM.

Consider B13, for which the Kd was 43 nM.

As to B14, the Kd is 96 nM.

These data come from US20160250341A1 (Molecular Partners, published 2016).
